What follows are substances tested against HLA-A*02:01 (Homo sapiens, UniProt P04439, D140Y/D185E/D98H/E176V/E277Q/G131W/G231S/I119V/I121R/I166T/I218V/L300P/L318F/N151K/N90K/P208A/P217A/Q86G/Q94H/R138H/R169H/T345S) (assay: MHC binding assay: UV-ligand exchange with β2m ELISA (peptide exchange yield)). Details: MHC class I binding score; binding to HLA-A*02:01 ranged by peptide exchange yield (UV-ligand exchange, β2m ELISA).
In short: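 Exchange yield is an ELISA read-out: complexes diluted 100-fold, captured on streptavidin plates, detected with HRP anti-β2m and TMB at 450 nm. Standard curve from refolded HLA-A*02:01/MLA-001 (15-500 ng/ml); complexes made by UV-triggered displacement of a photolabile ligand by test peptide.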

| Peptide Exchange | Substance |
| --- | --- |
| ″+++″ (≥50 = +++) | 352 (ALVFELHYV; listed as Homo sapiens) [compound 352] |
| ″+++″ (≥50 = +++) | 263 (SQWEDIHVV; listed as Homo sapiens) [compound 263] |
| ″+++″ (≥50 = +++) | 41 (FLDPSLDPLL; listed as Homo sapiens) [compound 41] |
| ″+++″ (≥50 = +++) | 359 (FMQDPMEVFV; listed as Homo sapiens) [compound 359] |
| ″++++″ (≥75% = ++++) | 232 (FMHQIIDQV; listed as Homo sapiens) [compound 232] |
| ″+++″ (≥50 = +++) | 138 (NLLDIDAPVTV; listed as Homo sapiens) [compound 138] |
| ″+++″ (≥50 = +++) | 6 (ALDTLEDDMTI; listed as Homo sapiens) [compound 6] |
| ″++″ (≥20% = ++) | 103 (KLGGTPAPA; listed as Homo sapiens) [compound 103] |
| ″+++″ (≥50 = +++) | 314 (LMKDCEAEV; listed as Homo sapiens) [compound 314] |
| ″+++″ (≥50 = +++) | 159 (SLQEEKLIYV; listed as Homo sapiens) [compound 159] |
| ″++++″ (≥75% = ++++) | 294 (ALLDQLHTLL; listed as Homo sapiens) [compound 294] |
| ″+++″ (≥50 = +++) | 362 (ILTELGGFEV; listed as Homo sapiens) [compound 362] |
| ″++++″ (≥75% = ++++) | 52 (FLVETGFLHV; listed as Homo sapiens) [compound 52] |
| ″+++″ (≥50 = +++) | 367 (NLWSLVAKV; listed as Homo sapiens) [compound 367] |
| ″++″ (≥20% = ++) | 248 (KTVEPPISQV; listed as Homo sapiens) [compound 248] |
| ″+++″ (≥50 = +++) | 256 (QLLPVSNVVSV; listed as Homo sapiens) [compound 256] |
| ″++++″ (≥75% = ++++) | 328 (VLLPQETAEIHL; listed as Homo sapiens) [compound 328] |
| ″+++″ (≥50 = +++) | 283 (ILQPMDIHV; listed as Homo sapiens) [compound 283] |
| ″+++″ (≥50 = +++) | 262 (SLWNAGTSV; listed as Homo sapiens) [compound 262] |
| ″+++″ (≥50 = +++) | 140 (QIAELPATSV; listed as Homo sapiens) [compound 140] |
| ″+++″ (≥50 = +++) | 30 (ELLEGSEIYL; listed as Homo sapiens) [compound 30] |
| ″+++″ (≥50 = +++) | 238 (GLVETELQL; listed as Homo sapiens) [compound 238] |
| ″+++″ (≥50 = +++) | 244 (ILQALAVHL; listed as Homo sapiens) [compound 244] |
| ″+++″ (≥50 = +++) | 122 (LLIPVVPGV; listed as Homo sapiens) [compound 122] |
| ″+++″ (≥50 = +++) | 132 (LVYEAIIMV; listed as Homo sapiens) [compound 132] |
| ″+++″ (≥50 = +++) | 147 (SILETVATL; listed as Homo sapiens) [compound 147] |

| Peptide Exchange | Substance |
| --- | --- |
| ″+++″ (≥50 = +++) | 273 (VLGEYSYLL; listed as Homo sapiens) [compound 273] |
| ″++++″ (≥75% = ++++) | 285 (GVATAGCVNEV; listed as Homo sapiens) [compound 285] |
| ″++″ (≥20% = ++) | 97 (LLFATQITL; listed as Homo sapiens) [compound 97] |
| ″+++″ (≥50 = +++) | 9 (ALCDTLITV; listed as Homo sapiens) [compound 9] |
| ″+++″ (≥50 = +++) | 148 (SIVASLITV; listed as Homo sapiens) [compound 148] |
| ″++++″ (≥75% = ++++) | 194 (YLDNVLAEL; listed as Homo sapiens) [compound 194] |
| ″+++″ (≥50 = +++) | 228 (FLGGLSPGV; listed as Homo sapiens) [compound 228] |
| ″+++″ (≥50 = +++) | 255 (YLFEEAISM; listed as Homo sapiens) [compound 255] |
| ″+++″ (≥50 = +++) | 344 (VLAFENPQV; listed as Homo sapiens) [compound 344] |
| ″++″ (≥20% = ++) | 188 (VMGDIPAAV; listed as Homo sapiens) [compound 188] |
| ″++++″ (≥75% = ++++) | 195 (YLGGFALSV; listed as Homo sapiens) [compound 195] |
| ″+++″ (≥50 = +++) | 357 (FLIQEIKTL; listed as Homo sapiens) [compound 357] |
| ″++″ (≥20% = ++) | 247 (KLKDRLPSI; listed as Homo sapiens) [compound 247] |
| ″+″ (≥10% = +) | 221 (ALVSTIIMV; listed as Homo sapiens) [compound 221] |
| ″+++″ (≥50 = +++) | 110 (LLFDHLEPMEL; listed as Homo sapiens) [compound 110] |
| ″+++″ (≥50 = +++) | 206 (HMQDVRVLL; listed as Homo sapiens) [compound 206] |
| ″+++″ (≥50 = +++) | 361 (ILQEFESKL; listed as Homo sapiens) [compound 361] |
| ″+++″ (≥50 = +++) | 167 (TLDTSKLYV; listed as Homo sapiens) [compound 167] |
| ″+++″ (≥50 = +++) | 21 (ALWAGLLTL; listed as Homo sapiens) [compound 21] |
| ″+++″ (≥50 = +++) | 14 (ALLRLLPGL; listed as Homo sapiens) [compound 14] |
| ″+++″ (≥50 = +++) | 183 (VLMPTVYQQGV; listed as Homo sapiens) [compound 183] |
| ″+++″ (≥50 = +++) | 60 (FVLDHEDGLNL; listed as Homo sapiens) [compound 60] |
| ″++++″ (≥75% = ++++) | 338 (FLDMTNWNL; listed as Homo sapiens) [compound 338] |
| ″+++″ (≥50 = +++) | 106 (FMASHLDYL; listed as Homo sapiens) [compound 106] |
| ″++++″ (≥75% = ++++) | 383 (YLLREWVNL; listed as Homo sapiens) [compound 383] |
| ″+++″ (≥50 = +++) | 164 (SVHKGFAFV; listed as Homo sapiens) [compound 164] |

| Peptide Exchange | Substance |
| --- | --- |
| ″++″ (≥20% = ++) | 185 (VMDDQRDLI; listed as Homo sapiens) [compound 185] |
| ″+++″ (≥50 = +++) | 350 (ALEDRVWEL; listed as Homo sapiens) [compound 350] |
| ″++++″ (≥75% = ++++) | 326 (VLAFLVHEL; listed as Homo sapiens) [compound 326] |
| ″+++″ (≥50 = +++) | 331 (VLWELAHLPTL; listed as Homo sapiens) [compound 331] |
| ″+++″ (≥50 = +++) | 115 (LLFDKLYLL; listed as Homo sapiens) [compound 115] |
| ″+++″ (≥50 = +++) | 207 (IIADLDTTIMFA; listed as Homo sapiens) [compound 207] |
| ″++++″ (≥75% = ++++) | 308 (SLYDVSRMYV; listed as Homo sapiens) [compound 308] |
| ″++++″ (≥75% = ++++) | 327 (VLIKWFPEV; listed as Homo sapiens) [compound 327] |
| ″++″ (≥20% = ++) | 353 (ATPMPTPSV; listed as Homo sapiens) [compound 353] |
| ″+++″ (≥50 = +++) | 66 (SLAGGLDDMKA; listed as Homo sapiens) [compound 66] |
| ″++++″ (≥75% = ++++) | 384 (YMIGSEVGNYL; listed as Homo sapiens) [compound 384] |
| ″+++″ (≥50 = +++) | 242 (ILLGIQELL; listed as Homo sapiens) [compound 242] |
| ″+++″ (≥50 = +++) | 153 (SLLAELHVL; listed as Homo sapiens) [compound 153] |
| ″++″ (≥20% = ++) | 271 (VIRNIVEAA; listed as Homo sapiens) [compound 271] |
| ″++″ (≥20% = ++) | 165 (TLDDDLDTV; listed as Homo sapiens) [compound 165] |
| ″+++″ (≥50 = +++) | 11 (ALFTFSPLTV; listed as Homo sapiens) [compound 11] |
| ″++″ (≥20% = ++) | 95 (ILGYMAHEHKV; listed as Homo sapiens) [compound 95] |
| ″+++″ (≥50 = +++) | 209 (ILQAELPSL; listed as Homo sapiens) [compound 209] |
| ″+++″ (≥50 = +++) | 177 (VLDDRELLL; listed as Homo sapiens) [compound 177] |
| ″+++″ (≥50 = +++) | 279 (YMAPEVVEA; listed as Homo sapiens) [compound 279] |
| ″++++″ (≥75% = ++++) | 287 (FLWEEKFNSL; listed as Homo sapiens) [compound 287] |
| ″++″ (≥20% = ++) | 246 (KLDETGVAL; listed as Homo sapiens) [compound 246] |
| ″+++″ (≥50 = +++) | 18 (LLGEFSIKM; listed as Homo sapiens) [compound 18] |
| ″+++″ (≥50 = +++) | 22 (ALWDPVIEL; listed as Homo sapiens) [compound 22] |
| ″+++″ (≥50 = +++) | 171 (TLVPPAALISI; listed as Homo sapiens) [compound 171] |
| ″+″ (≥10% = +) | 68 (GLDQQFAGLDL; listed as Homo sapiens) [compound 68] |
